The target of this experiment is T1, human carbonic anhydrase XII (CA12) on A549 lung cancer cells (human, UniProt O43570 25-354).
T1 construct: whole, on cells; No recombinant protein was used; also called CA-XII; CA XII
Briefly: flow cytometry on A549 cells, serial dilution, Cy5-labeled donkey anti-human IgG secondary, pH 7.4. The method, then: 50.000 A549 cells were incubated with a serial dilution of Monomers or Dimers (6A10). After washing, cells were incubated with a Cy5-labeled secondary antibody (donkey anti-human IgG light and heavy chain). Binding of the secondary antibody was analyzed with a BD FACSCanto and the DIVA software. RU=relative light units.
After washing, cells were incubated with a Cy5-labeled secondary antibody (donkey anti-human IgG light and heavy chain). Binding of the secondary antibody was analyzed with a BD FACSCanto and the DIVA software. RU=relative light units.
CA12-positive A549 cells were incubated with different amounts of Fab6A10 dimers or Fab6A 10 monomers at the indicated pH, followed by an incubation of a suitable Cy5-labeled secondary antibody at neutral pH (approx. 7.2).

T1 sequence (O43570 25-354): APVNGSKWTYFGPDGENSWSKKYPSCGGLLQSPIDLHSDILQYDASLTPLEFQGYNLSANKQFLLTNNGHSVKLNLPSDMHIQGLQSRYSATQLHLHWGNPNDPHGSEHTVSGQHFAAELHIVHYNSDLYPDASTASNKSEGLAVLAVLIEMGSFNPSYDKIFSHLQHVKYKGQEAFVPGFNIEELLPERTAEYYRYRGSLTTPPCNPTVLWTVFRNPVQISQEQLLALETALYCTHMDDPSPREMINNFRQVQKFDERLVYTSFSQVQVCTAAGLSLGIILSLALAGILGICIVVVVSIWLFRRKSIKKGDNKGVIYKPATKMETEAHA

B1: Fab6A10 dimer (other)
heavy: QVQLKESGPGLVQPSETLSLTCTVSGFSLTTYSVSWVRQPSGKGPEWMGRMWYDGDTVYNSALKSRLSISRDTSKNQVFLKMNSLETDETGTYYCTRDFGYFDGSSPFDYWGQGVMVTVSSASTKGPSVFPLAPSSKSTSGGTAALGCLVKDYFPEPVTVSWNSGALTSGVHTFPAVLQSSGLYSLSSVVTVPSSSLGTQTYICNVNHKPSNTKVDKKVEPKSCDKTHT
light: RCPVDIVLTQSPATLSVTPGESVSLSCRASQGISTSIHWYQQKSNESPRLLIKFASQSISGIPSRFSGSGSGTDFTLSINRVESEDFSVYFCQQTYSLPYTFGAGTKLELKRTVAAPSVFIFPPSDEQLKSGTASVVCLLNNFYPREAKVQWKVDNALQSGNSQESVTEQDSKDSTYSLSSTLTLSKADYEKHKVYACEVTHQGLSSPVTKSFNRGEC
modifications: additional non-naturally occurring cysteine at the N-terminus of the VL region (N-terminus RCPVDIVLTQ..., SEQ ID NO: 18) forms a disulfide bond with the same cysteine of the second Fab monomer
notes: also called 6A10 Fab dimers; 6A10Fab dimers
With B1, the binding result is reported as “binds”.

The record behind these values is patent publication US20240360195A1 (HELMHOLTZ ZENTRUM M NCHEN DEUTSCHES FORSCHUNGSZENTRUM F R …, published 2024).
